Numbering of substitutions follows the chain as printed.
B1: anti-human PD-L1 monoclonal antibody 50G2-3 (antibody, V domains shown)
VH: EVQLVESGGGLVQPGRSLKLSCVASGFTFSNFWMTWIRQAPGKGLEWVASITHSGGITYYPDSVKGRFTISRDDAKSTLYLQMNSLRSEDTATYYCSRDPTEAPFDYWGQGVMVTVSS
VL: DIQMTQSPPSLSASLGDQVTITCQASQNINNYIAWYQQKPGKAPRQLIRYTSTLVSGTPSRFSGSGSGKDYSFSISNVESEDIASYYCLQYDNVPNTFGAGTKLELK
notes: also called murine hybridoma clone 50G2-3
B2: 1910G2HzL7H7 (antibody, V domains shown)
VH: B1 VH with R16G, K19R, V23A, I37V, P61A, A75S, S88A, T93V, V112T, M113L
VL: DIQMTQSPSSLSASVGDRVTITCQASQNINNYIAWYQQKPGKAPKQLIRYTSTLVSGVPSRFSGSGSGKDYTFTISSLQPEDIATYYCLQYDNVPNTFGQGTKLEIK
notes: Only the variable domains are tied to the name; Full chains are not tied to the name; also called humanized antibody 1910G2HzL7H7; 1910G2HzL7 + 1910G2HzH7
B3: 1910G2HzL4H4 (antibody, V domains shown)
VH: B1 VH with R16G, K19R, V23A, I37V, A75S, S77N, S88A, T93V, V112T, M113L
VL: B2 VL
notes: Only the variable domains are tied to the name; Full chains are not tied to the name; also called humanized antibody 1910G2HzL4H4; 1910G2HzL4 + 1910G2HzH4
B4: 1910G2HzL2H2 (antibody, V domains shown)
VH: B1 VH with R16G, K19R, V23A, I37V, P61V, T78S, S88A, T93V, V112T, M113L
VL: B2 VL
notes: Only the variable domains are tied to the name; Captured on an AHC sensor and detected with anti-human secondary antibody; also called humanized antibody 1910G2HzL2H2; 1910G2HzL2 + 1910G2HzH2
B5: 1910G2HzL9H9 (antibody, V domains shown)
VH: EVQLVESGGGLVQPGGSLRLSCAASGFTFSNFWMSWVRQAPGKGLEWVASITHSGGITYYADSVKGRFTISRDDSKNTLYLQMNSLRAEDTAVYYCSRDPTEAPFDYWGQGTLVTVSS
VL: B2 VL with Y71F
notes: Only the variable domains are tied to the name; Full chains are not tied to the name; also called humanized antibody 1910G2HzL9H9; 1910G2HzL9 + 1910G2HzH9
B6: 1910G2HzL3H3 (antibody, V domains shown)
VH: B5 VH with A61V, D74N, S75A, N77S, T78S, T112V, L113M
VL: B2 VL with V58T, S77N
notes: Only the variable domains are tied to the name; Full chains are not tied to the name; also called humanized antibody 1910G2HzL3H3; 1910G2HzL3 + 1910G2HzH3

target: T1, human PD-L1 protein on HEK293 cell (human, UniProt Q9NZQ7 19-290); test: flow cytometry screening on HEK293-PD-L1 cells
T1 construct: whole, on cells; also called HEK293-hPD-L1; HEK293-PD-L1
T1 sequence (Q9NZQ7 19-290): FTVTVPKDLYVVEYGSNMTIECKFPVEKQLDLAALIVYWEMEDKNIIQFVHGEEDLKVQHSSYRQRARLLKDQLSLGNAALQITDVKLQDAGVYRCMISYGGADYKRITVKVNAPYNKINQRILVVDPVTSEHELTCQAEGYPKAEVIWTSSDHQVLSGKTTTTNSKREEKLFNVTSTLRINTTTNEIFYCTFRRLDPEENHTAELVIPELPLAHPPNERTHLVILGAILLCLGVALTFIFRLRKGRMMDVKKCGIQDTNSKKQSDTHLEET
Experimental: Clones that specifically bind to HEK293-PD-L1 cells and can simultaneously block the binding of receptor PD-1 to HEK293-hPD-L1 cells were screened from the fusion plate by flow cytometer and subcloning was carried out by limited dilution method, and finally a monoclonal that can secrete specific antibodies was screened. Monoclonal antibodies were obtained by small-scale production and purification in serum-free medium for subsequent identification, including the detection of the binding ability of antibodies to HEK293-PD-L1, the function of blocking binding of PD-1 to HEK293-hPD-L1 cell, and the mixed lymphocyte experiment to finally obtain candidate anti-human PD-L1 monoclonal antibody 50G2-3. The sequences of the variable regions of murine hybridoma clone 50G2-3 obtained by monoclonal antibody sequencing is as follows: […]

| Binder | binding result |
| --- | --- |
| B1 | binds |

target: T2, human PD-L1 (Acro, Catalog Number: H5229) (human, UniProt Q9NZQ7 19-238); test: BLI, Octet RED96e, antibody on AHC sensor, antigen 100 nM, 1:1 fit
T2 construct: Soluble antigen in the BLI assay; also called antigen
T2 sequence (Q9NZQ7 19-238 limits assumed): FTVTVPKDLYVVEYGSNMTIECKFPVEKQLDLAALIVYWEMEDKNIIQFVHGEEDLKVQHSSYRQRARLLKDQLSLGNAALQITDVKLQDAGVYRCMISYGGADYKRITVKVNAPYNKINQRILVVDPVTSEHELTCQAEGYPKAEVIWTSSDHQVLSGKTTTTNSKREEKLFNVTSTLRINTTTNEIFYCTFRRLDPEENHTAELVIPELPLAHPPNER
Experimental: (2) Detection of samples on machines (Octet Data Acquisition 11.1.0.11): First, the sample was added into a 96-well plate (Greiner bio-one, 655209) with a system of 200 μL/well. Then the software parameters were set, the plate temperature was set to 30° C., and the frequency of collecting standard dynamic signals was 5.0 HZ. Next, the AHC sensor (Fortébio, Catalog Number: 18-0015) was pre-wetted with 1xPBST for 10 minutes, and then the sample was detected on the instrument. Each cycle incluedes the following steps: 1) immersing in buffer for 60 seconds; 2) detecting whether the antigen nonspecifically binding to the sensor; 3) regeneration of 10 mM glycine solution with pH 1.7; 4) immersing in the buffer for 60 seconds; 5) immobilizing the antibody on the sensor for 20 seconds; 6) immersing the sensor in the buffer for 180 seconds; 7) the antigen binding to the antibody for 180 seconds; 8) dissociating the antigen from the antibody for 10 minutes; 9) regenerating the sensor.

| Binder | Kd [nM] | koff [s⁻¹] | kon [M⁻¹ s⁻¹] |
| --- | --- | --- | --- |
| B2 | 0.302 | 0.000289 | 958000 |
| B3 | 0.16 | 0.000165 | 1.03e+06 |
| B4 | 0.243 | 0.00025 | 1.03e+06 |
| B5 | 0.214 | 0.00021 | 980000 |
| B6 | 0.452 | 0.000477 | 1.06e+06 |

From US20250277038A1 (SHANGHAI JEMINCARE PHARMACEUTICAL, published 2025)
